Molecular target: T1, p185 BCR-ABL (human, UniProt P00519 27-1130)
T1 construct: Endogenous protein of the SUP-B15 ALL cell line; also called Bcr-Abl oncoprotein (SUP-B15 cells)
Experiment: co-precipitation of Bcr-Abl with Bcr by anti-BCR (1256-1271), immunokinase assay, SUP-B15 cells
Procedure: The effects of the sense and antisense 3′ BCR oligonucleotides were tested on BCR expression in SUP-Bi5 cells, a cell line derived from a Ph¹-positive acute lymphocytic leukemia patient that expresses p185 BCR—ABL.
In this study, equal amounts of the sense and the antisense oligonucleotide treated B15 cells were analyzed.

- binding result: binds
B1: p160 BCR (enzyme, human, UniProt P11274 1-1271, looked up)
chain: MVDPVGFAEAWKAQFPDSEPPRMELRSVGDIEQELERCKASIRRLEQEVNQERFRMIYLQTLLAKEKKSYDRQRWGFRRAAQAPDGASEPRASASRPQPAPADGADPPPAEEPEARPDGEGSPGKARPGTARRPGAAASGERDDRGPPASVAALRSNFERIRKGHGQPGADAEKPFYVNVEFHHERGLVKVNDKEVSDRISSLGSQAMQMERKKSQHGAGSSVGDASRPPYRGRSSESSCGVDGDYEDAELNPRFLKDNLIDANGGSRPPWPPLEYQPYQSIYVGGMMEGEGKGPLLRSQSTSEQEKRLTWPRRSYSPRSFEDCGGGYTPDCSSNENLTSSEEDFSSGQSSRVSPSPTTYRMFRDKSRSPSQNSQQSFDSSSPPTPQCHKRHRHCPVVVSEATIVGVRKTGQIWPNDGEGAFHGDADGSFGTPPGYGCAADRAEEQRRHQDGLPYIDDSPSSSPHLSSKGRGSRDALVSGALESTKASELDLEKGLEMRKWVLSGILASEETYLSHLEALLLPMKPLKAAATTSQPVLTSQQIETIFFKVPELYEIHKEFYDGLFPRVQQWSHQQRVGDLFQKLASQLGVYRAFVDNYGVAMEMAEKCCQANAQFAEISENLRARSNKDAKDPTTKNSLETLLYKPVDRVTRSTLVLHDLLKHTPASHPDHPLLQDALRISQNFLSSINEEITPRRQSMTVKKGEHRQLLKDSFMVELVEGARKLRHVFLFTDLLLCTKLKKQSGGKTQQYDCKWYIPLTDLSFQMVDELEAVPNIPLVPDEELDALKIKISQIKNDIQREKRANKGSKATERLKKKLSEQESLLLLMSPSMAFRVHSRNGKSYTFLISSDYERAEWRENIREQQKKCFRSFSLTSVELQMLTNSCVKLQTVHSIPLTINKEDDESPGLYGFLNVIVHSATGFKQSSNLYCTLEVDSFGYFVNKAKTRVYRDTAEPNWNEEFEIELEGSQTLRILCYEKCYNKTKIPKEDGESTDRLMGKGQVQLDPQALQDRDWQRTVIAMNGIEVKLSVKFNSREFSLKRMPSRKQTGVFGVKIAVVTKRERSKVPYIVRQCVEEIERRGMEEVGIYRVSGVATDIQALKAAFDVNNKDVSVMMSEMDVNAIAGTLKLYFRELPEPLFTDEFYPNFAEGIALSDPVAKESCMLNLLLSLPEANLLTFLFLLDHLKRVAEKEAVNKMSLHNLATVFGPTLLRPSEKESKLPANPSQPITMTDSWSLEVMSQVQVLLYFLQLEAIPAPDSKRQSILFSTEV
notes: also called normal Bcr protein; wild-type Bcr

— US20040022772A1 (University of Texas, published 2004)
